# Literature values as cited in publication PMC11720126.
# pKd: −log10 of the molar value. Like-named read-outs stand apart in the source and are kept apart here.
# Tests used:
# [1] = target: Calmodulin (Homo sapiens) (UniProt P0DP23)
# [2] = target: Calmodulin (Homo sapiens) (UniProt P0DP23); remark: listed apart in the source
# [3] = target: Calmodulin (Homo sapiens) (UniProt P0DP23); remark: listed apart in the source
# [4] = target: Calmodulin (Homo sapiens) (UniProt P0DP23); remark: listed apart in the source
Substance,pKd [1],pKd [2],pKd [3],pKd [4]
STIM1 PBD (from UniProt Q13586),4.26,6.10,,
STIM2 PBD (from UniProt Q9P246),,,6.05,3.82
